Binding result and Kd data for one molecule are collected here from patent WO2019173771A1 (dated 2019).

The term Kd denotes the constant that tells how readily two partners part at equilibrium. The low end stands for higher affinity, the high end for lower affinity.

The target in assay [1] is T1, recombinant human CD147-Fc chimeric protein (R&D Systems, cat. no. 927-EMN-050), glycosylated (human, UniProt P35613-2 25-205, glycosylated (as supplied; migrated at about 62 kDa)).
T1 construct: Bought protein; also called glycosylated CD147-Fc fusion protein; glycosylated CD147 antigen; not shown: Fc part of the bought chimeric protein
T1 sequence (looked up): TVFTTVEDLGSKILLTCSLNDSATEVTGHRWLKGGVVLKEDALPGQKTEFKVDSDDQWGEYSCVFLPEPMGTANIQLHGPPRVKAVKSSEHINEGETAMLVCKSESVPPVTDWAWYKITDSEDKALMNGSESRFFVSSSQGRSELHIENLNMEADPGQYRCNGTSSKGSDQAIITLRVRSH
The assay is described as follows: ELISA, CD147-Fc adsorbed at 1 ug/mL. On the technique in general: In an ELISA, binding on a coated surface is turned into a signal by an enzyme label.

The target in assay [2] is T2, recombinant human CD147-Fc chimeric protein (R&D Systems, cat. no. 927-EMN-050), deglycosylated (human, UniProt P35613-2 25-205, deglycosylated of N- and simple O-linked carbohydrates (Protein Deglycosylation Mix II or Enzymatic Protein Deglycosylation Kit; migrated at 52 and 48 kDa)).
T2 construct: Same bought protein as m6 after enzymatic deglycosylation; also called deglycosylated CD147-Fc fusion protein; deglycosylated CD147 antigen; not shown: Fc part of the bought chimeric protein
T2 sequence (looked up): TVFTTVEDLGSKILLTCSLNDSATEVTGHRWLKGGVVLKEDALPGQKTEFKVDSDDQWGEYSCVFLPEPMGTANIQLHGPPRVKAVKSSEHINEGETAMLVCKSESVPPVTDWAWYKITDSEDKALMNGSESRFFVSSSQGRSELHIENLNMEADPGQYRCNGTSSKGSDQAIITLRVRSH
The assay is described as follows: ELISA, deglycosylated CD147-Fc adsorbed at 1 ug/mL.

The target of assay [3] is T3, cynomolgus CD147 on the cynomolgus primary kidney epithelial cell line (cynomolgus monkey).
T3 construct: whole, on cells; also called cynomolgus monkey CD147
The assay is described as follows: FACS on the cynomolgus primary kidney epithelial cell line, Alexa Fluor 647 anti-human IgG.

B1: humanized anti-human CD147 hu3A11 antibody (3A11 Lc1 / Hc1) (antibody, V domains shown)
VH: EVQLVESGGGLVQPGGSLRLSCAASGFTFSNYWMDWVRQAPGKGLEWVGEIRLKSYNYATHYAASVKGRFTISRDDSKNSVYLQMNSLKTEDTAVYYCTAAGTDYWGQGTLVTVSS
VL: DIQMTQSPSSLSASVGDRVTITCRASQSVRTDVGWYQQKPGKAPKLLIYYSSNRYTGVPSRFSGSGSGTDFTLTISSLQPEDFATYYCQQDYSSPYTFGQGTKLEIK
notes: also called hu 3A11 Lc1 / Hc1; huHc1 / huLc1
For the molecule B1, the binding result in assay [1] and in assay [2] was “binds” in each case. For the same molecule, the Kd in assay [3] came to 1.3 nM.
